Source: patent US20230312755A1 (ANGITIA, published 2023)
Values belong to the binder of their own block, whether it stands above or below them.

What was measured:
human Sclerostin [1] = target: T1, human Sclerostin (human, UniProt Q9BQB4 24-213); assay: cell-based or functional assay
T1 sequence: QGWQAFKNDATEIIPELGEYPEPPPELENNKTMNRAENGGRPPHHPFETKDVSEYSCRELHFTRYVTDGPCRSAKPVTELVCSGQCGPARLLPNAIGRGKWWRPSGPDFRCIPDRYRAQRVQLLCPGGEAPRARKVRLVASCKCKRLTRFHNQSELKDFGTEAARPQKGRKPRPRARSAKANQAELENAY

[2] = target: T2, His-tagged human Sclerostin (NCBI reference No. NP_079513.1) (human, UniProt Q9BQB4 24-213); assay: ELISA, plate coated with His-tagged human Sclerostin
T2 construct: also called mouse His-tagged human Sclerostin; not shown: His tag
T2 sequence: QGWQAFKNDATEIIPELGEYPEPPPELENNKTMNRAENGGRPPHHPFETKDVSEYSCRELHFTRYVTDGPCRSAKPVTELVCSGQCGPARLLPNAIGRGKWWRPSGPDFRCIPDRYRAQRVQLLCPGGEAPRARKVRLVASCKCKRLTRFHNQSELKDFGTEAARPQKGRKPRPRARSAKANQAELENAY
Experimental: The ability of antibodies to specifically bind Sclerostin was determined by an ELISA capture assay. Plates were coated, in a 96-well half-area, with 100 μl/well of mouse His-tagged human Sclerostin (NCBI reference No. is NP_079513.1) [[…]], in coating buffer (PBS, pH 7.4), and incubated at RT for one hour, or 4° C. overnight. The plates were washed once with 100 μl/well of washing solution (PBS containing 0.2% Tween20, BIO-RAD). Plates were then incubated in blocking solution (PBS containing 1% BSA, 1% goat serum and 0.5% Tween20; 100 μl/well) for one hour at room temperature (RT). Anti-Sclerostin antibodies at various concentrations (1000, 333.3, 111.1, 37.0, 12.3, 4.1, 1.4, 0.5, 0.15, 0.05 ng/ml), a positive control antibody Romosozumab or non-Sclerostin related IgG (human or rat IgG, negative control), were then added to each well in 20 μl/well of blocking solution, and plates were incubated at RT for one hour. NeutrAvidin HRP (Pierce, Catalog #31001) diluted in blocking solution (1:50,000 dilution) was added at to each well ([…]), and the plates were incubated at RT for one hour prior to three washes with […] of washing solution. SuperSignal ELISA Femto (ThermoFisher Scientific, Catalog #37074) working solution was added to the plates ([…]), and the signal was read using a luminometer at 425 nm.

[3] = target: T3, cynomolgus monkey Sclerostin (cynomolgus monkey, UniProt Q9BG78 24-213 (Chlorocebus aethiops entry)); assay: BLI (Gator), antibody on anti-hFc biosensor, Sclerostin as analyte, 1:1 global fit
T3 chain: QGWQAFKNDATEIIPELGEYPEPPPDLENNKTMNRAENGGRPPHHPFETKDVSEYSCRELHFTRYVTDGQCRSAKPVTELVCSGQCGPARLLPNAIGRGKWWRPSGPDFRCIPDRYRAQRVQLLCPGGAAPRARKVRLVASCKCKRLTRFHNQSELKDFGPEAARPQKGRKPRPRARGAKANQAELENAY
Experimental: (§1) The binding affinity of humanized anti-Sclerostin antibodies to human and cynomolgus monkey Sclerostin were determined with bio-layer interferometry using a Gator instrument (Probe Life). Antibodies were immobilized on an anti-hFc biosensor, using a […]. Serial dilutions of human Sclerostin and cynomolgus monkey Sclerostin from 4 μg/ml by two folds in kinetics buffer (PBS, pH 7.4, 0.05% Tween-20, 0.2% BSA, 10 μM biotin) were used as the analytes. Affinity (KD) and kinetic parameters (Kₒₙ and Koff) were calculated from a global fit (1:1) of the data using the Gator software.

human Sclerostin [4] = target: T1, human Sclerostin; assay: as above
Experimental: as §1

human DKK1 [5] = target: T4, human DKK1 (human, UniProt O94907 32-266); assay: BLI (Gator), antibody on anti-hFc biosensor, antigen as analyte, 1:1 global fit
T4 construct: Analyte in BLI and the protein added in the reporter assay; also called hDKK1; Dickkopf-1
T4 sequence (looked up): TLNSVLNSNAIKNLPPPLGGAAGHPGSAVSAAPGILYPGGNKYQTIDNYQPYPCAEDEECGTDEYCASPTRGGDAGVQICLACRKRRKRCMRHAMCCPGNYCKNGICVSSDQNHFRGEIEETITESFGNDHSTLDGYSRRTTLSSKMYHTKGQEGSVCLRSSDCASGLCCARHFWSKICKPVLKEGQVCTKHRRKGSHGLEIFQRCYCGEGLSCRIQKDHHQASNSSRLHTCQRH
Experimental: (§2) Binding kinetics and affinities of anti-Sclerostin×anti-DKK1 and anti-Sclerostin×anti-RANKL bispecific antibodies were measured with Gator (Probe Life) bio-layer interferometry (BLI). Antibodies were immobilized on an anti-hFc biosensor, using a 5 μg/ml solution. Serial dilutions of sclerostin (from 1 μg/ml), DKK1 (from 2 μg/ml), or RANKL (from 4 μg/ml) by two folds in kinetics buffer (PBS, pH 7.4, 0.05% Tween-20, 0.2% BSA) were used as the analytes. Affinity (KD) and kinetic parameters (Kₒₙ and Koff) were calculated from a global fit (1:1) of the data using the Gator software.

human Sclerostin [6] = target: T1, human Sclerostin; assay: as above
Experimental: as §2

human DKK1 [7] = target: T4, human DKK1; assay: cell-based or functional assay
human Sclerostin [8] = target: T1, human Sclerostin; assay: cell-based or functional assay; remark: listed apart in the source
human Sclerostin [9] = target: T1, human Sclerostin; assay: BLI (Gator), antibody on anti-hFc biosensor, antigen as analyte; koff at LOD, KD estimated
Experimental: as §2

EC50, Sclerostin-neutralisation activity in HEK293/TCF/LEF/Wnt1 cells (luciferase reporter) (human Sclerostin [1]): 15.1 nM
B3: hAb-3 (antibody, V domains shown)
VH: EVQLVQSGAEVKKPGASVKVSCKASGYTFTDYEIHWVRQAPGKGLEWMGAIDPETGGTAYNQKFKGRVTMTTDTSTSTAYMELRSLRSDDTAVYYCYSYDYVTYWGQGTTVTVSS
VL: DIQMTQSPSSLSASVGDRVTITCRSSQSLLYSDSRTYLNWLQQKPGKSPKRLIYLVSKLDSGVPDRFSGSGSGTDFTLTISSLQPEDFATYYCWQGTHLPHTFGGGTKVEIK

Kd (human Sclerostin [9]): ~0.01 nM
Kd (human DKK1 [5]): 1.01 nM
koff (human DKK1 [5]): 0.000301 s⁻¹
kon (human DKK1 [5]): 297000 M⁻¹ s⁻¹
kon (human Sclerostin [6]): 1.88e+06 M⁻¹ s⁻¹
EC50, DKK1 neutralization activity in HEK293/TCF/LEF/Wnt1 reporter gene assay (human DKK1 [7]): 24.1 nM
EC50, Sclerostin neutralization activity in HEK293/TCF/LEF/Wnt1 reporter gene assay (human Sclerostin [8]): 23.6 nM
B6: BAP0037 (bispecific antibody, human IgG4 S228P, kappa)
heavy: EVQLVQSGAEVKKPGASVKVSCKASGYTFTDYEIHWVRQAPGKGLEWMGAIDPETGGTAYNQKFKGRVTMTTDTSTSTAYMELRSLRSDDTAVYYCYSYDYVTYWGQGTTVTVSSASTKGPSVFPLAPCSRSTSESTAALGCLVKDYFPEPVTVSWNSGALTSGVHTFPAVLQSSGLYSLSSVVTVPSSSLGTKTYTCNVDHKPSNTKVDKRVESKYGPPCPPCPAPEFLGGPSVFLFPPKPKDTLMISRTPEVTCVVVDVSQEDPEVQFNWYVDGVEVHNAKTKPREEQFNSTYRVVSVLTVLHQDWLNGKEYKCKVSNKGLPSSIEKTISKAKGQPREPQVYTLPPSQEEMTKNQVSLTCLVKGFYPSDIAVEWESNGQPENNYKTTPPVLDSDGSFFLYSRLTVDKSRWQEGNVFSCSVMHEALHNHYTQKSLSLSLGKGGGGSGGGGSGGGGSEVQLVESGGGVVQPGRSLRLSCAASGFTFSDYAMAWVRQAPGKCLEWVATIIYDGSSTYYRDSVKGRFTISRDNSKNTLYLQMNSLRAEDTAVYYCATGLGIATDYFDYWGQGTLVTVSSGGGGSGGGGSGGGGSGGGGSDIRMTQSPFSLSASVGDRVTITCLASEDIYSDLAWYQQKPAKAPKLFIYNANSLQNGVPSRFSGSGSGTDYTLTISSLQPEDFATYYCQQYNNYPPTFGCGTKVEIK
light: DIQMTQSPSSLSASVGDRVTITCRSSQSLLYSDGRTYLNWYQQKPGKSPKRLIYLVSKLDSGVPDRFSGSGSGTDFTLTISSLQPEDFATYYCWQGTHLPHTFGGGTKVEIKRTVAAPSVFIFPPSDEQLKSGTASVVCLLNNFYPREAKVQWKVDNALQSGNSQESVTEQDSKDSTYSLSSTLTLSKADYEKHKVYACEVTHQGLSSPVTKSFNRGEC
notes: Anti-DKK1 scFv (VH-VL) fused to the C-terminus of the heavy chains of the anti-Sclerostin full length antibody (hAb-2)

Continued, binder first:

B1: 65B12C9 (antibody, V domains shown)
VH: QVQLQQPGAELVKPGASVKLSCKASGYTFTSYWMHWVKQRPGQGLEWIGMIHPNSGSSNYNEKFKSKATLTVDKSSSTAYMQLSSLTSEDSAVYYCANDYDDEGFAYWGQGTLVTVSA
VL: SIVMTQTPKFLLVSAGDRVTITCKASQSVSNDVAWYQQKPGQSPKLLIYYASNRCTGVPDRFTGSGYGTDFTFTISTVQAEDLAVYFCQQDYSSPWTFGGGTKLEIK
notes: Murine monoclonal antibody from a hybridoma
EC50, Sclerostin-neutralisation activity in HEK293/TCF/LEF/Wnt1 cells (luciferase reporter) (human Sclerostin [1]): 152 nM
EC50 [2]: 0.04 nM

B2: hAb-1 (antibody, V domains shown)
VH: EVQLVQSGAEVKKPGASVKVSCKASGYTFTDYEIHWVRQAPGKGLEWMGAIDPETGGTAYNQKFKGRVTMTTDTSTSTAYMELRSLRSDDTAVYYCYSYDYVTYWGQGTTVTVSS
VL: DVVMTQSPLSLSVSPGERASLSCKSSQSLLYSDGRTYLNWYLQKPGQSPQRLIYLVSKLDSGVPDRFSGSGSGTDFTLKISRVQSEDVGVYYCWQGTHLPHTFGGGTKVEIK
notes: Humanized 93B1B7; also called humanized anti-Sclerostin antibody hAb-1
Kd [3]: 0.18 nM
koff [3]: 0.000229 s⁻¹
kon [3]: 1.28e+06 M⁻¹ s⁻¹
Kd (human Sclerostin [4]): 0.41 nM
koff (human Sclerostin [4]): 0.0003 s⁻¹
kon (human Sclerostin [4]): 730000 M⁻¹ s⁻¹
EC50, Sclerostin-neutralisation activity in HEK293/TCF/LEF/Wnt1 cells (luciferase reporter) (human Sclerostin [1]): 13.9 nM

B4: BAP0039 (bispecific antibody, human IgG4 S228P, kappa)
heavy: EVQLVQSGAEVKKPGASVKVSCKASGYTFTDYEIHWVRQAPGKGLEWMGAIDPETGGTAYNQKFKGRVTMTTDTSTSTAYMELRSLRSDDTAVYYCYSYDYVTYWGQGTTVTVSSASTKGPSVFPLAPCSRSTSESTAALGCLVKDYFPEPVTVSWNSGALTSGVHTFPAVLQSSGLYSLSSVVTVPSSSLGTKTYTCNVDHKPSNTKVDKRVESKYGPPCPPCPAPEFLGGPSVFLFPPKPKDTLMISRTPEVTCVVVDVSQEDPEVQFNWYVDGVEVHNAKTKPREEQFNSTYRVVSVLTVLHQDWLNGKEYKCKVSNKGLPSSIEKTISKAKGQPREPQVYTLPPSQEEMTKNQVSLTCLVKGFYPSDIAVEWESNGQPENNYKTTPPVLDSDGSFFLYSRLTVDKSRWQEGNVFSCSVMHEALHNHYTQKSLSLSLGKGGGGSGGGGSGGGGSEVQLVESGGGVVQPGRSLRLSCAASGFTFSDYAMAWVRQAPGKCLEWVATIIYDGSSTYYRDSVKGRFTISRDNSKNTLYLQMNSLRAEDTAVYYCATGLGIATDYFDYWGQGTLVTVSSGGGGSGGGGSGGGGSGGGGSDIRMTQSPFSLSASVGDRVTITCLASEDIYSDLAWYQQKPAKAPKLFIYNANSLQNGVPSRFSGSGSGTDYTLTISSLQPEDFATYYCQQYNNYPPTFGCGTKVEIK
light: DVVMTQSPLSLSVSPGERASLSCKSSQSLLYSDGRTYLNWYLQKPGQSPQRLIYLVSKLDSGVPDRFSGSGSGTDFTLKISRVQSEDVGVYYCWQGTHLPHTFGGGTKVEIKRTVAAPSVFIFPPSDEQLKSGTASVVCLLNNFYPREAKVQWKVDNALQSGNSQESVTEQDSKDSTYSLSSTLTLSKADYEKHKVYACEVTHQGLSSPVTKSFNRGEC
notes: Anti-DKK1 scFv (VH-VL) fused to the C-terminus of the heavy chains of the anti-Sclerostin full length antibody (hAb-1)
Kd (human DKK1 [5]): 0.14 nM
koff (human DKK1 [5]): 4.32e-05 s⁻¹
kon (human DKK1 [5]): 309000 M⁻¹ s⁻¹
Kd (human Sclerostin [6]): 0.052 nM
koff (human Sclerostin [6]): 9.74e-05 s⁻¹
kon (human Sclerostin [6]): 1.88e+06 M⁻¹ s⁻¹
EC50, DKK1 neutralization activity in HEK293/TCF/LEF/Wnt1 reporter gene assay (human DKK1 [7]): 20.9 nM
EC50, Sclerostin neutralization activity in HEK293/TCF/LEF/Wnt1 reporter gene assay (human Sclerostin [8]): 26.7 nM

B5: Romosozumab (antibody, V domains shown)
VH: EVQLVQSGAEVKKPGASVKVSCKASGYTFTDYNMHWVRQAPGQGLEWMGEINPNSGGAGYNQKFKGRVTMTTDTSTSTAYMELRSLRSDDTAVYYCARLGYDDIYDDWYFDVWGQGTTVTVSS
VL: DIQMTQSPSSLSASVGDRVTITCRASQDISNYLNWYQQKPGKAPKLLIYYTSRLLSGVPSRFSGSGSGTDFTLTISSLQPEDFATYYCQQGDTLPYTFGGGTKVEIK
Kd [3]: 0.35 nM
koff [3]: 0.000239 s⁻¹
kon [3]: 755000 M⁻¹ s⁻¹

B7: 91F6D10 (antibody, V domains shown)
VH: QVQLQQSGAELVRPGASVTLSCKASGYTFTDYEMHWVKQTPVHGLEWIGAIDPETGGTAYNQKFKAKAILTADRSSSTAYMELRSLTSEDSAVYYCFSYDYVSYWGQGTLVTVSA
VL: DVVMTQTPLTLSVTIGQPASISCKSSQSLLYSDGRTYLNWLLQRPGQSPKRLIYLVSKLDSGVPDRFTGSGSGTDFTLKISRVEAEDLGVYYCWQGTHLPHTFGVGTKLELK
notes: as for B1
EC50, Sclerostin-neutralisation activity in HEK293/TCF/LEF/Wnt1 cells (luciferase reporter) (human Sclerostin [1]): 60.6 nM
EC50 [2]: 0.06 nM
